Where “and” joins values, the source holds several entries; their conditions need not be identical. Equal values may be shown once. Each block holds one binder with its values, some of them ahead of it.
Key:
Aβ1-42 [1] = target: T1, Aβ1-42 (UniProt P05067 672-713); experiment: Aβ 1-42 ELISA, peptide on plate; C-terminal VD
T1 construct: domain: Aβ1-42; Aβ 1-42 is a part of it; also called A beta
Experimental: (§1) ELISA assays were performed to screen for antibodies that bind a desired target antigen as follows. Maxisorb NUNC Immuno plates were coated with 100 μL/well of 1 μg/ml of Aβ1-42 diluted in coating buffer overnight at 6° C. Plates were washed three times with PBS containing 0.02% Tween 20. Blocking solution was prepared by dissolving the blocking reagent for ELISA (Roche) in 100 mL water and then diluted further 1:10 prior to use. Plates were blocked by the addition of 265 μL/well blocking solution for 2 hours at room temperature. Plates were washed three times after blocking with PBS containing 0.02% Tween 20.
(§2) Antibody or DVD-Igs were diluted to 100 ng/μL in PBST+0.5% BSA and serially diluted 1:3. One hundred microliters of antibody or DVD-Ig preparations was added to the plate and incubated for 2 hour at room temperature. Wells were washed three times with PBS containing 0.02% Tween 20.
(§3) One hundred microliters of TMB solution was added to each well and incubated for 10 minutes. TMB solution was prepared by mixing 20 mL 100 mM natrium-acetate pH4.9 with 200 μL TMB solution (Roche #92817060) and 29.5 μL 3% H₂O₂. The reaction was stopped by the addition of 50 μL 1N sulphuric acid. Plates were read spectrophotometrically at a wavelength of 450 nm.

IL-18 = target: T2, IL-18 (UniProt Q14116 37-193, limits assumed); experiment: direct bind ELISA, antigen on plate; N-terminal VD
T2 construct: Bought reagent
Experimental: (§4) Enzyme Linked Immunosorbent Assays to screen for antibodies that bind a desired target antigen were performed as follows. High bind ELISA plates (Corning Costar #3369, Acton, Mass.) were coated with 100 μL/well of 10 μg/ml of desired target antigen (R&D Systems, Minneapolis, Minn.) or desired target antigen extra-cellular domain/FC fusion protein (R&D Systems, Minneapolis, Minn.) or monoclonal mouse anti-polyHistidine antibody (R&D Systems # MAB050, Minneapolis, Minn.) in phosphate buffered saline (10×PBS, Abbott Bioresearch Center, Media Prep# MPS-073, Worcester, Mass.) overnight at 4° C. Plates were washed four times with PBS containing 0.02% Tween 20. Plates were blocked by the addition of 300 μL/well blocking solution (non-fat dry milk powder, various retail suppliers, diluted to 2% in PBS) for 1/2 hour at room temperature. Plates were washed four times after blocking with PBS containing 0.02% Tween 20.
(§5) One hundred microliters of antibody or DVD-Ig preparations diluted in blocking solution as described above was added to the desired target antigen plate or desired target antigen/FC fusion plate or the anti-polyHistidine antibody/His tagged desired target antigen plate prepared as described above and incubated for 1 hour at room temperature. Wells were washed four times with PBS containing 0.02% Tween 20.
(§6) One hundred microliters of 10 ng/mL goat anti-human IgG-FC specific HRP conjugated antibody (Southern Biotech #2040-05, Birmingham, Ala.) was added to each well of the desired target antigen plate or anti-polyHistidine antibody/Histidine tagged desired target antigen plate. Alternatively, one hundred microliters of 10 ng/mL goat anti-human IgG-kappa light chain specific HRP conjugated antibody (Southern Biotech #2060-05 Birmingham, Ala.) was added to each well of the desired target antigen/FC fusion plate and incubated for 1 hour at room temperature. Plates were washed 4 times with PBS containing 0.02% Tween 20.

Recombinant Human IL-1β = target: T3, Recombinant Human IL-1β (human, UniProt P01584 117-269); experiment: direct bind ELISA, antigen on plate; parent antibody
T3 construct: Bought reagent; also called IL-1B
Experimental: as §4, §5, §6

RAGE/FC Chimera [2] = target: T4, RAGE/FC Chimera (UniProt Q15109 23-342); experiment: as above
T4 construct: extracellular domain; Bought reagent; not shown: Fc region of the bought chimera
Experimental: as §4, §5, §6

RAGE/FC Chimera [3] = target: T4, RAGE/FC Chimera; experiment: direct bind ELISA, antigen on plate; N-terminal VD
Experimental: as §4, §5, §6

Aβ1-42 [4] = target: T1, Aβ1-42; experiment: Aβ 1-42 ELISA, peptide on plate; N-terminal VD
Experimental: as §1, §2, §3

RAGE/FC Chimera [5] = target: T4, RAGE/FC Chimera; experiment: direct bind ELISA, antigen on plate; C-terminal VD
Experimental: as §4, §5, §6

IGF-I = target: T5, IGF-I (UniProt P05019 49-118); experiment: direct bind ELISA, antigen on plate; N-terminal VD
T5 construct: Bought reagent; also called IGF1; IGF-1
Experimental: as §4, §5, §6

IGF-II = target: T6, IGF-II (UniProt P01344 25-91); experiment: direct bind ELISA, antigen on plate; N-terminal VD
T6 construct: Bought reagent; also called IGF2; IGF-2
Experimental: as §4, §5, §6

[6] = target: T7, Repulsive Guidence Molecule A (UniProt Q96B86 48-422, limits assumed); experiment: SPR (Biacore), antibody captured; parent antibody
T7 construct: Bought reagent for the ELISA; also called RGM-A; RGMa
T7 sequence (looked up): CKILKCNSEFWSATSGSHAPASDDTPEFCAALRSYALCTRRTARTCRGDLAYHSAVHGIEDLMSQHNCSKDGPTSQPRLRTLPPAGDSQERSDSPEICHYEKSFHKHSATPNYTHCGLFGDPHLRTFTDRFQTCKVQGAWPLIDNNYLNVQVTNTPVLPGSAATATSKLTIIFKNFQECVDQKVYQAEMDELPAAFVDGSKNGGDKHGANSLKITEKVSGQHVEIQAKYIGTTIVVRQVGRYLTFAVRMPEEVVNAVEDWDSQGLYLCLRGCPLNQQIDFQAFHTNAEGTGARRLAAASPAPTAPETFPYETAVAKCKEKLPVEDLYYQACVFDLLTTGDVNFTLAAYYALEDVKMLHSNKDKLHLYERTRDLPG
Experimental: The BIACORE assay (Biacore, Inc, Piscataway, N.J.) determines the affinity of antibodies or DVD-Ig with kinetic measurements of on-rate and off-rate constants. Binding of antibodies or DVD-Ig to a target antigen (for example, a purified recombinant target antigen) is determined by surface plasmon resonance-based measurements with a Biacore® 1000 or 3000 instrument (Biacore® AB, Uppsala, Sweden) using running HBS-EP (10 mM HEPES [pH 7.4], 150 mM NaCl, 3 mM EDTA, and 0.005% surfactant P20) at 25° C. All chemicals are obtained from Biacore® AB (Uppsala, Sweden) or otherwise from a different source as described in the text. For example, approximately 5000 RU of goat anti-mouse IgG, (Fcγ), fragment specific polyclonal antibody (Pierce Biotechnology Inc, Rockford, Ill.) diluted in 10 mM sodium acetate (pH 4.5) is directly immobilized across a CMS research grade biosensor chip using a standard amine coupling kit according to manufacturer's instructions and procedures at 25 μg/ml. Unreacted moieties on the biosensor surface are blocked with ethanolamine. Modified carboxymethyl dextran surface in flowcell 2 and 4 is used as a reaction surface. Unmodified carboxymethyl dextran without goat anti-mouse IgG in flow cell 1 and 3 is used as the reference surface. For kinetic analysis, rate equations derived from the 1:1 Langmuir binding model are fitted simultaneously to association and dissociation phases of all eight injections (using global fit analysis) with the use of Biaevaluation 4.0.1 software. Purified antibodies or DVD-Ig are diluted in HEPES-buffered saline for capture across goat anti-mouse IgG specific reaction surfaces. Antibodies or DVD-Ig to be captured as a ligand (25 μg/ml) are injected over reaction matrices at a flow rate of 5 μl/min. […] The equilibrium dissociation constant (M) of the reaction between antibodies or DVD-Igs and the target antigen is then calculated from the kinetic rate constants by the following formula: KD=koff/kₒₙ. Binding is recorded as a function of time and kinetic rate constants are calculated.

[7] = target: T7, Repulsive Guidence Molecule A; experiment: direct bind ELISA, antigen on plate; parent antibody
Experimental: as §4, §5, §6

T4 sequence (Q15109 23-342, change not shown): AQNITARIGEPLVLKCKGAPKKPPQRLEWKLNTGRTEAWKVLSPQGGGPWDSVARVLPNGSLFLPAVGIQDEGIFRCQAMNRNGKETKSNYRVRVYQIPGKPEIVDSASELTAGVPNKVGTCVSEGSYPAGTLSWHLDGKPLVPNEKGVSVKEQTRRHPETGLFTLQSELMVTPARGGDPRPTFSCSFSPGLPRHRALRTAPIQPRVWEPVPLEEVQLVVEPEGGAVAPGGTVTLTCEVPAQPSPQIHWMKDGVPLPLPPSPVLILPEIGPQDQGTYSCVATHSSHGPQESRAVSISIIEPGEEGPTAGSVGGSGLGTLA

B2: AB032 (antibody, human IgG1, kappa, V domains shown)
VH: QVQLVESGGGVVQPGRSLRLSCAASGFTFSVYGMNWVRQAPGKGLEWVAIIWYDGDNQYYADSVKGRFTISRDNSKNTLYLQMNGLRAEDTAVYYCARDLRTGPFDYWGQGTLVTVSS
VL: EIVLTQSPDFQSVTPKEKVTITCRASQSIGSSLHWYQQKPDQSPKLLIKYASQSFSGVPSRFSGSGSGTDFTLTINSLEAEDAAAYYCHQSSSLPFTFGPGTKVDIKR
notes: also called IL-1β parent antibody
EC50 (Recombinant Human IL-1β): 5.27 nM

B3: AB060 (antibody, human IgG1, kappa, V domains shown)
VH: QIQLVQSGPELKKPGETVKISCKASGYTFTNFGMNWVKQAPGKGLKWMGYINTNTGESIYSEEFKGRFAFSLETSASTAYLQINNLKNEDTATYFCARSRMVTAYGMDYWGQGTSVTVSS
VL: DIVMTQSQKFMSTSVGDRVSITCKASQNVGTAVAWYQQRPGQSPKLLIFSASNRYTGVPDRFTGSGSGTDFTLTLSNMQPEDLADYFCQQYSSYPLTFGVGTKLELKR
EC50 (RAGE/FC Chimera [2]): 1.69 nM and 0.64 nM

B7: DVD230 (bispecific antibody, human IgG1, kappa)
heavy: not shown
light: QSVLTQPPSVSAAPGQKVTISCSGSSSNIENNHVSWYQQLPGTAPKLLIYDNNKRPSGIPDRFSGSKSGTSATLGITGLQTGDEADYYCETWDTSLSAGRVFGGGTKLTVLGQPKAAPDVVMTQSPLSLPVTPGEPASISCKSSQSLLDSDGKTYLNWLLQKPGQSPQRLIYLVSKLDSGVPDRFSGSGSGTDFTLKISRVEAEDVGVYYCWQGTHFPRTFGQGTKVEIKRTVAAPSVFIFPPSDEQLKSGTASVVCLLNNFYPREAKVQWKVDNALQSGNSQESVTEQDSKDSTYSLSSTLTLSKADYEKHKVYACEVTHQGLSSPVTKSFNRGEC
notes: DVD-Ig; also called VD230H/VD230L
EC50 (Aβ1-42 [1]): 0.039 nM
EC50 (IGF-I): 4.84 nM
EC50 (IGF-II): 2.44 nM

B8: AB059 (antibody, human IgG1, kappa, V domains shown)
VH: EVQLVESGGGLVQPGSSLKLSCVASGFTFSNYGMNWIRQAPKKGLEWIGMIYYDSSEKHYADSVKGRFTISRDNSKNTLYLEMNSLRSEDTAIYYCAKGTTPDYWGQGVMVTVSS
VL: DVVLTQTPVSLSVTLGDQASMSCRSSQSLEYSDGYTFLEWFLQKPGQSPQLLIYEVSNRFSGVPDRFIGSGSGTDFTLKISRVEPEDLGVYYCFQATHDPLTFGSGTKLEIKR
notes: also called RGMa parent antibody; RGMA parent antibody
Kd [6]: 0.64 nM
koff [6]: 0.000609 s⁻¹
kon [6]: 952000 M⁻¹ s⁻¹
EC50 [7]: 0.13 nM

Results, then the binder that gave them:

EC50 (Aβ1-42 [1]): 0.048 nM
EC50 (IL-18): 0.68 nM
B1: DVD232 (bispecific antibody, human IgG1, kappa)
heavy: not shown
light: EIVMTQSPATLSVSPGERATLSCRASESISSNLAWYQQKPGQAPRLFIYTASTRATDIPARFSGSGSGTEFTLTISSLQSEDFAVYYCQQYNNWPSITFGQGTRLEIKRTVAAPDVVMTQSPLSLPVTPGEPASISCKSSQSLLDSDGKTYLNWLLQKPGQSPQRLIYLVSKLDSGVPDRFSGSGSGTDFTLKISRVEAEDVGVYYCWQGTHFPRTFGQGTKVEIKRTVAAPSVFIFPPSDEQLKSGTASVVCLLNNFYPREAKVQWKVDNALQSGNSQESVTEQDSKDSTYSLSSTLTLSKADYEKHKVYACEVTHQGLSSPVTKSFNRGEC
notes: DVD-Ig; also called VD232H/VD232L

EC50 (Aβ1-42 [1]): 0.048 nM
EC50 (RAGE/FC Chimera [3]): 7.32 nM
B4: DVD293 (bispecific antibody, human IgG1, kappa)
heavy: not shown
light: DIVMTQSQKFMSTSVGDRVSITCKASQNVGTAVAWYQQRPGQSPKLLIFSASNRYTGVPDRFTGSGSGTDFTLTLSNMQPEDLADYFCQQYSSYPLTFGVGTKLELKRTVAAPDVVMTQSPLSLPVTPGEPASISCKSSQSLLDSDGKTYLNWLLQKPGQSPQRLIYLVSKLDSGVPDRFSGSGSGTDFTLKISRVEAEDVGVYYCWQGTHFPRTFGQGTKVEIKRTVAAPSVFIFPPSDEQLKSGTASVVCLLNNFYPREAKVQWKVDNALQSGNSQESVTEQDSKDSTYSLSSTLTLSKADYEKHKVYACEVTHQGLSSPVTKSFNRGEC
notes: DVD-Ig; also called VD293H/VD293L

EC50 (Aβ1-42 [4]): 0.014 nM
EC50 (RAGE/FC Chimera [5]): 1.53 nM
B5: DVD294 (bispecific antibody, human IgG1, kappa)
heavy: not shown
light: DVVMTQSPLSLPVTPGEPASISCKSSQSLLDSDGKTYLNWLLQKPGQSPQRLIYLVSKLDSGVPDRFSGSGSGTDFTLKISRVEAEDVGVYYCWQGTHFPRTFGQGTKVEIKRTVAAPDIVMTQSQKFMSTSVGDRVSITCKASQNVGTAVAWYQQRPGQSPKLLIFSASNRYTGVPDRFTGSGSGTDFTLTLSNMQPEDLADYFCQQYSSYPLTFGVGTKLELKRTVAAPSVFIFPPSDEQLKSGTASVVCLLNNFYPREAKVQWKVDNALQSGNSQESVTEQDSKDSTYSLSSTLTLSKADYEKHKVYACEVTHQGLSSPVTKSFNRGEC
notes: DVD-Ig; also called VD294H/VD294L

EC50 (Aβ1-42 [4]): 0.013 nM
B6: DVD233 (bispecific antibody, human IgG1, kappa)
heavy: not shown
light: DVVMTQSPLSLPVTPGEPASISCKSSQSLLDSDGKTYLNWLLQKPGQSPQRLIYLVSKLDSGVPDRFSGSGSGTDFTLKISRVEAEDVGVYYCWQGTHFPRTFGQGTKVEIKRTVAAPQIVLIQSPAIMSASPGEKVTMTCSASSSVSYMYWYQQKPGSSPRLLIYDTSNLASGVPVRFSGSGSGTSYSLTISRMEAEDAATYYCQQWSGYPYTFGGGTKLEIKRTVAAPSVFIFPPSDEQLKSGTASVVCLLNNFYPREAKVQWKVDNALQSGNSQESVTEQDSKDSTYSLSSTLTLSKADYEKHKVYACEVTHQGLSSPVTKSFNRGEC
notes: DVD-Ig; also called VD233H/VD233L

From patent publication US20150183867A1 (AbbVie / Abbott, published 2015)
